{"source": "paper PMC2114473", "test_in_all_cases": "radioligand binding", "key": {"[1]": {"molecular_target": "type I collagen, pepsinized"}, "[2]": {"molecular_target": "type II collagen, pepsinized"}, "[3]": {"molecular_target": "type III collagen, pepsinized"}}, "data": [{"substance": "human thrombospondin (TSP) (from UniProt P07996 19-1170) (natural protein)", "values": [{"measurement": "cpm bound", "setting": "[1]", "value": 5320, "unit": "cpm"}, {"measurement": "cpm bound", "setting": "[2]", "value": 5320, "unit": "cpm"}, {"measurement": "cpm bound", "setting": "[3]", "value": 4940, "unit": "cpm"}]}]}
